Assay results taken from paper doi:10.1101/2020.05.07.057075 (bioRxiv, 2020).
“And” between values parts separate entries of the source, which are not always exact repeats. Identical values can stand only once.

B3: cytochrome c (Cc), recombinant, purified (natural protein)
chain: not shown
modifications: heme group

Key:
SDS-PAGE = biological target: the molecule itself; test: SDS-PAGE
[1] = biological target: T1, full-length nucleophosmin NPM(1-294), recombinant (UniProt P06748 1-294); test: ITC
[2] = biological target: T1, full-length nucleophosmin NPM(1-294), …; test: negative-stain electron microscopy with 3D reconstruction
[3] = biological target: NPM oligomerization domain core NPM(9-122) (UniProt P06748 9-122); test: ITC
[4] = biological target: NPM(123-294) construct without the oligomerization domain (UniProt P06748 123-294); test: ITC
[5] = biological target: B3; test: ITC

T1 sequence (P06748 whole entry): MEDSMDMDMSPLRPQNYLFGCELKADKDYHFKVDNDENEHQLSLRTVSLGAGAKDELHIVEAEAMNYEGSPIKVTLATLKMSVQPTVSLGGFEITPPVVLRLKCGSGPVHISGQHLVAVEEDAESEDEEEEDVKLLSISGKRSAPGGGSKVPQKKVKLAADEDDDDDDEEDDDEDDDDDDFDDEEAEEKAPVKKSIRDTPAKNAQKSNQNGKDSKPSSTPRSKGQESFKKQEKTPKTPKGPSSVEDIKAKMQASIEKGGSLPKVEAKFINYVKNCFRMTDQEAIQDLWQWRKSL

B1: NPM oligomerization domain NPM(1-130), His-tagged (domain or fragment)
chain: MEDSMDMDMSPLRPQNYLFGCELKADKDYHFKVDNDENEHQLSLRTVSLGAGAKDELHIVEAEAMNYEGSPIKVTLATLKMSVQPTVSLGGFEITPPVVLRLKCGSGPVHISGQHLVAVEEDAESEDEEE
With B1 the “stoichiometry N” value (SDS-PAGE) was 5.

B2: p19ARF(1-37) domain (peptide)
peptide: MGRRFLVTVRIQRAGRPLQERVFLVKFVRSRRPRTAS
B2 was tested, and the Kd [1] was 0.28 µM and the “stoichiometry N” value [1] was 5.6.

For B3, the “stoichiometry N” value [2] was 1 Cc per NPM pentamer, the “fold decrease of affinity (by KD) upon addition of 0.1 M KCl” value [3] was 3 fold and the “stoichiometry N” value [3] was 2 Cc:NPM and 1 Cc:NPM. The Kd [4] was 13 µM, the “fold decrease of affinity (by KD) upon addition of 0.1 M KCl” value [1] was 12 fold and the “stoichiometry N” value [1] was 1 Cc:NPM and 2 Cc:NPM.

B4: NPM(225-294) construct, C-terminal globular domain (domain or fragment)
chain: QESFKKQEKTPKTPKGPSSVEDIKAKMQASIEKGGSLPKVEAKFINYVKNCFRMTDQEAIQDLWQWRKSL
For B4, the Kd [5] was about 200 µM.
